± gives the uncertainty stated by the source.
Assay: self-splicing fitness, log relative to wild type (ln ratio); higher = more splicing; Tetrahymena group I intron in knt gene, E. coli kanamycin selection, DiMSum; sequences stand for … in CUCUCU…GGAGGGAAAAGUUAUCAGGCAUGCACCUGGUAGCUAGUCUUUAAACCAAUAGAUUGCAUCGGUUUAAAAGGCAAGACCGUCAAAUUGCGGGAAAGGGGUCAACAGCCGUUCAGUACCAAGUCUCAGGGGAAACUUUGAGAUGGCCUUGCAAAGGGUAUGGUAAUAAGCUGACGGACAUGGUCCUAACCACGCAGCCAAGUCCUAAGUCAACAGAUCUUCUGUUGAUAUGGAUGCAGUUCACAGACUAAAUGUCGGUCGGGGAAGAUGUAUUCUUCUCAUAAGAUAUAGUCGGACCUCUCCUUAAUGGGAGCUAGCGGAUGAAGUGAUGCAACACUGGAGCCGCUGGGAACUAAUUUGUAUGCGAAAGUAUAUUGAUUAGUUUUGGAGUACUCGUGGUCG
Outline: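 DiMSum derived fitness as the error-weighted combination of fold changes across replicates, kanamycin versus no kanamycin, normalised to wild type. E. coli BL21(DE3) held the library, which randomised all eight P1ex-region intron nucleotides within the knt kanamycin-resistance gene on pET-22b(+). Six replicate transformations grew overnight at 37°C or 30°C on LB agar with or without 25 μg/mL kanamycin, also containing 100 μg/mL carbenicillin, 50 μM IPTG and 0.2% rhamnose, and pooled colonies were amplicon-sequenced on an Illumina HiSeq 2500.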

| Sequence | self-splicing fitness (ln) (30 °C) | self-splicing fitness (ln) (37 °C) |
| --- | --- | --- |
| GAAUAGCAAUAUUACGCAUU | -3.04 ± 0.22 | -1.43 ± 0.2 |
| GAAUAGCAAUAUUACGCGAG | -1.19 ± 0.087 | -0.803 ± 0.096 |
| GAAUAGCAAUAUUACGCUCA | -0.0838 ± 0.16 | 0.784 ± 0.18 |
| GAAUAGCAAUAUUACGGACU | -0.83 ± 0.07 | -0.397 ± 0.087 |
| GAAUAGCAAUAUUACGGGAA | -2.97 ± 0.19 | -0.92 ± 0.1 |
| GAAUAGCAAUAUUACGGGCC | -1.6 ± 0.26 | -1.13 ± 0.37 |
| GAAUAGCAAUAUUACGGGGA | -2.99 ± 0.19 | -2.39 ± 0.19 |
| GAAUAGCAAUAUUACGGGGC | -3.15 ± 0.43 |  |
| GAAUAGCAAUAUUACGGGGU | -3.77 ± 0.21 | -3.71 ± 0.21 |
| GAAUAGCAAUAUUACGGUUU | -1.03 ± 0.078 | -1.11 ± 0.1 |
| GAAUAGCAAUAUUACGUACU | -0.732 ± 0.11 | -0.151 ± 0.12 |
| GAAUAGCAAUAUUACGUAUA | -2.32 ± 0.15 | -1.54 ± 0.15 |
| GAAUAGCAAUAUUACGUUAU | -2.79 ± 0.12 | -1.65 ± 0.14 |
| GAAUAGCAAUAUUACGUUGU | -3.27 ± 0.14 | -2.38 ± 0.16 |
| GAAUAGCAAUAUUACGUUUC | -3.37 ± 0.19 | -2.4 ± 0.29 |
| GACAAGCAAUAUUACGAAUA | -2.03 ± 0.12 | -1.17 ± 0.099 |
| GACAAGCAAUAUUACGACCC | 0.926 ± 0.23 | -0.477 ± 0.39 |
| GACAAGCAAUAUUACGAGGA | -3.16 ± 0.21 | -2.42 ± 0.14 |
| GACAAGCAAUAUUACGAGUU | -3.7 ± 0.15 | -2.3 ± 0.16 |
| GACAAGCAAUAUUACGAUUA | -0.415 ± 0.096 | -0.117 ± 0.1 |
| GACAAGCAAUAUUACGCACG | -2.2 ± 0.13 | -1.07 ± 0.17 |
| GACAAGCAAUAUUACGCCAU | -3.44 ± 0.4 | -2.96 ± 0.26 |
| GACAAGCAAUAUUACGCGCG | -0.648 ± 0.091 | -0.467 ± 0.11 |
| GACAAGCAAUAUUACGCGGA | -2.24 ± 0.16 | -1.25 ± 0.13 |
| GACAAGCAAUAUUACGCUAG | -2.28 ± 0.081 | -1.36 ± 0.089 |

| Sequence | self-splicing fitness (ln) (30 °C) | self-splicing fitness (ln) (37 °C) |
| --- | --- | --- |
| GACAAGCAAUAUUACGCUCG | -1.47 ± 0.17 | -0.891 ± 0.21 |
| GACAAGCAAUAUUACGGAUC | -1.19 ± 0.13 | -0.182 ± 0.15 |
| GACAAGCAAUAUUACGGGGC | -3.36 ± 0.18 | -2.81 ± 0.23 |
| GACAAGCAAUAUUACGGUAA | -1.69 ± 0.11 | -0.907 ± 0.11 |
| GACAAGCAAUAUUACGGUCC | -3.13 ± 0.2 | -1.83 ± 0.29 |
| GACAAGCAAUAUUACGUAAC | -1.64 ± 0.077 | -1.22 ± 0.11 |
| GACAAGCAAUAUUACGUACA | -0.573 ± 0.055 | -0.314 ± 0.079 |
| GACAAGCAAUAUUACGUCGA | -2.53 ± 0.09 | -1.24 ± 0.078 |
| GACAAGCAAUAUUACGUCGG | -2.91 ± 0.14 | -2.43 ± 0.18 |
| GACAAGCAAUAUUACGUGAG | -2.28 ± 0.058 | -1.43 ± 0.06 |
| GACAAGCAAUAUUACGUGCG | -1.16 ± 0.068 | -0.532 ± 0.081 |
| GACAAGCAAUAUUACGUGUG | -2.78 ± 0.078 | -1.56 ± 0.083 |
| GACCAGCAAUAUUACGACCA | -0.124 ± 0.17 | -0.054 ± 0.15 |
| GACCAGCAAUAUUACGACCG | -0.572 ± 0.11 | -0.318 ± 0.17 |
| GACCAGCAAUAUUACGAGGC | -3.02 ± 0.13 | -0.778 ± 0.091 |
| GACCAGCAAUAUUACGAUCC | -1.93 ± 0.14 | -1.27 ± 0.17 |
| GACCAGCAAUAUUACGCAAA | -1.75 ± 0.11 | -0.859 ± 0.1 |
| GACCAGCAAUAUUACGCAAG | -1.81 ± 0.089 | -1.15 ± 0.11 |
| GACCAGCAAUAUUACGCACC | -0.0772 ± 0.089 | -1.06 ± 0.11 |
| GACCAGCAAUAUUACGCAUA | -0.474 ± 0.058 | -0.452 ± 0.074 |
| GACCAGCAAUAUUACGCCGA | -0.69 ± 0.14 | -0.272 ± 0.15 |
| GACCAGCAAUAUUACGCGUA | -0.76 ± 0.059 | -0.392 ± 0.068 |
| GACCAGCAAUAUUACGCUCC | -2.32 ± 0.22 | -1.83 ± 0.21 |
| GACCAGCAAUAUUACGGAGG | -2.04 ± 0.068 | -0.681 ± 0.07 |
| GACCAGCAAUAUUACGGCAU | 0.00655 ± 0.046 | 0.553 ± 0.068 |

| Sequence | self-splicing fitness (ln) (30 °C) | self-splicing fitness (ln) (37 °C) |
| --- | --- | --- |
| GACCAGCAAUAUUACGGGAU | -1.71 ± 0.084 | -0.575 ± 0.099 |
| GACCAGCAAUAUUACGGGCC | -3.69 ± 0.15 | -2.26 ± 0.21 |
| GACCAGCAAUAUUACGGGCU | -2.93 ± 0.14 | -1.96 ± 0.14 |
| GACCAGCAAUAUUACGGUCC | -2.95 ± 0.17 |  |
| GACCAGCAAUAUUACGGUUG | -0.661 ± 0.053 | -0.341 ± 0.062 |
| GACCAGCAAUAUUACGUAGC | -0.693 ± 0.069 | -0.496 ± 0.082 |
| GACCAGCAAUAUUACGUGGA | -1.67 ± 0.078 | -0.914 ± 0.081 |
| GACCAGCAAUAUUACGUUCG | -2.05 ± 0.073 | -0.063 ± 0.074 |
| GACCAGCAAUAUUACGUUGA | -0.701 ± 0.053 | -0.203 ± 0.066 |
| GACCAGCAAUAUUACGUUGG | -3.95 ± 0.13 | -2.53 ± 0.12 |
| GACGAGCAAUAUUACGAAAC | -4.29 ± 0.3 | -3.14 ± 0.28 |
| GACGAGCAAUAUUACGAAGA | -3.31 ± 0.27 |  |
| GACGAGCAAUAUUACGACCU | -2.01 ± 0.15 | 0.0378 ± 0.16 |
| GACGAGCAAUAUUACGACGU | -2.31 ± 0.23 | -1.13 ± 0.25 |
| GACGAGCAAUAUUACGAUGC | -3.82 ± 0.44 | -0.275 ± 0.21 |
| GACGAGCAAUAUUACGCACC | -3.06 ± 0.15 | -0.796 ± 0.12 |
| GACGAGCAAUAUUACGCCGU | -2.58 ± 0.45 |  |
| GACGAGCAAUAUUACGCGGA | -2.74 ± 0.23 | -2.87 ± 0.36 |
| GACGAGCAAUAUUACGCGGC | -3.25 ± 0.29 |  |
| GACGAGCAAUAUUACGCUAU | -3.39 ± 0.2 | -2.42 ± 0.25 |
| GACGAGCAAUAUUACGCUGG |  | -2.79 ± 0.43 |
| GACGAGCAAUAUUACGGACU | -0.448 ± 0.15 | -0.75 ± 0.18 |
| GACGAGCAAUAUUACGGAGC | -4.4 ± 0.39 | -2.27 ± 0.22 |
| GACGAGCAAUAUUACGGAUA | -2.52 ± 0.24 | -2.55 ± 0.44 |
| GACGAGCAAUAUUACGGCCA |  | 0.241 ± 0.29 |

| Sequence | self-splicing fitness (ln) (30 °C) | self-splicing fitness (ln) (37 °C) |
| --- | --- | --- |
| GACGAGCAAUAUUACGGCCU | -1.85 ± 0.096 | -1.12 ± 0.14 |
| GACGAGCAAUAUUACGGCUC | -2.6 ± 0.12 | -1.41 ± 0.15 |
| GACGAGCAAUAUUACGGCUG | -1.82 ± 0.13 | -1.13 ± 0.13 |
| GACGAGCAAUAUUACGGGGA | -3.12 ± 0.22 | -2.37 ± 0.29 |
| GACGAGCAAUAUUACGGUCC | -3.83 ± 0.25 | -1.74 ± 0.23 |
| GACGAGCAAUAUUACGUAUU | -3.7 ± 0.21 | -2.44 ± 0.18 |
| GACGAGCAAUAUUACGUGAA |  | -2.29 ± 0.32 |
| GACGAGCAAUAUUACGUGCC | -1.56 ± 0.14 | -1.97 ± 0.26 |
| GACGAGCAAUAUUACGUGUA | -5.08 ± 0.25 | -2.49 ± 0.14 |
| GACGAGCAAUAUUACGUUGG | -3.34 ± 0.12 | -3.25 ± 0.22 |
| GACGAGCAAUAUUACGUUUA | -2.06 ± 0.14 | -0.752 ± 0.12 |
| GACUAGCAAUAUUACGAAUG | -2.65 ± 0.18 | -1.93 ± 0.17 |
| GACUAGCAAUAUUACGACGG | -2.2 ± 0.24 | -1.78 ± 0.35 |
| GACUAGCAAUAUUACGAGCA | -1.51 ± 0.14 | -0.564 ± 0.13 |
| GACUAGCAAUAUUACGAUAA | -0.678 ± 0.12 | -0.492 ± 0.13 |
| GACUAGCAAUAUUACGCUCC | -3.46 ± 0.47 |  |
| GACUAGCAAUAUUACGCUGC | -3.53 ± 0.21 | -2.85 ± 0.28 |
| GACUAGCAAUAUUACGCUGG | -3.18 ± 0.21 | -2.13 ± 0.25 |
| GACUAGCAAUAUUACGGAAA | -1.53 ± 0.14 | -0.989 ± 0.14 |
| GACUAGCAAUAUUACGGGGU | -4.18 ± 0.17 | -2.91 ± 0.15 |
| GACUAGCAAUAUUACGGUAU | -1.3 ± 0.074 | -0.543 ± 0.092 |
| GACUAGCAAUAUUACGGUGG | -1.91 ± 0.072 | -1.27 ± 0.082 |
| GACUAGCAAUAUUACGUAGU | -2.84 ± 0.18 | -2.28 ± 0.27 |
